B1: anti-CD3 antibody designated as CD3hi (antibody, V domains shown)
VH: EVQLVESGGGLVQPGGSLKLSCAASGFTFNTYAMNWVRQASGKGLEWVGRIRSKYNNYATYYADSVKDRFTISRDDSKSTLYLQMNSLKTEDTAVYYCVRHGNFGNSYVSWFAYWGQGTLVTVSS
VL: QAVVTQEPSLTVSPGGTVTLTCRSSTGAVTTSNYANWVQQKPGQAPRGLIGGTNKRAPWTPARFSGSLLGDKAALTLSGAQPEDEAEYFCALWYSNLWVFGGGTKLTVL
B2: anti-CD3 antibody designated as CD3med (antibody, V domains shown)
VH: B1 VH with S79N, L81A, Y114H
VL: B1 VL with R23G, T31S, D71G, F89Y
B3: anti-CD3 antibody designated as CD3lo (antibody, V domains shown)
VH: B1 VH with L81A
VL: B1 VL

Changes are numbered by the printed parent chain.

This test has as its target CD3-Fc. The test can be described thus: SPR (Biacore T200, 25 C), CD3-Fc captured on anti-hFc CM5 chip, antibody as analyte, 1:1 model.
Molecule B1 registered a Kd of 16 nM. The value for B2 was 30 nM; that for B3 was 48 nM.

Values taken from patent US20240025993A1, “CD19 BINDING MOLECULES AND USES THEREOF” (NOVARTIS AG, priority 2020, published 2024).
